Experimental data from patent US11278600B2, “Human alpha-galactosidase variants” (Codexis, Inc., priority 2014, dated 2022).
Numbering of substitutions follows the chain as printed. In names and notes the source's numbering stands.

T1: GLA (Homo sapiens, UniProt P06280)
T1 construct: made in house; host or cells: HEK293 / HEK293T cells, transient transfection; unpurified culture supernatant used
T1 sequence (P06280 32-429): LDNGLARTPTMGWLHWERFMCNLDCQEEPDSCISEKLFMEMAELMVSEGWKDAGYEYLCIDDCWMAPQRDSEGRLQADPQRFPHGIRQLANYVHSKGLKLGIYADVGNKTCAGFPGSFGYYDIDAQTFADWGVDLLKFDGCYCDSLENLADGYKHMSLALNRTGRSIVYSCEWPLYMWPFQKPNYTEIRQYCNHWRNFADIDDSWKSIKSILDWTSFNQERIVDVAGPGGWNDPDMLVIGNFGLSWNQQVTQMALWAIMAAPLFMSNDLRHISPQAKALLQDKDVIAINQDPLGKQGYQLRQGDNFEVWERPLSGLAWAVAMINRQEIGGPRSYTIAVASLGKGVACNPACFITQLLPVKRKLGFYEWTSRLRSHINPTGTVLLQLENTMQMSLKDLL

B1: Variant 73: GLA variant; K206A relative to SEQ ID NO: 5 (protein)
chain: T1 sequence (P06280 32-429) with K206A
modifications: Synthetic Polypeptide sequence of Variant No. 73
B2: 299 (protein)
chain: T1 sequence (P06280 32-429) with K206A, F217R, N247D, Q302K, M322I, K343G, A350G, E367T, R373K, L397F
modifications: Synthetic Polypeptide sequence of Variant No. 299 of mature Human GLA
B3: 298 (protein)
chain: T1 sequence (P06280 32-429) with K206A, F217R, N247D, L316D, M322I, A337P, A350G, K362Q, E367N, R373K
modifications: Synthetic Polypeptide sequence of Variant No. 298 of mature Human GLA
B4: 297 (protein)
chain: T1 sequence (P06280 32-429) with K206A, F217R, G230V, N247D, Q302K, M322I, E367N, T369S, R373K
modifications: Synthetic Polypeptide sequence of Variant No. 297 of mature Human GLA
B5: 359 (protein)
chain: LDNGLARTPTMGWLHWERFMCNLDCQEEPDSCISEKLFMEMAERMVSEGWKDAGYEYLCIDDCWMAPQRDSEGRLQADPQRFPHGIRQLANYVHSKGLKFGIYADVGNKTCAGFPGSFGYYDIDAQTFADWGVDLLKFDGCYCDSLENLADGYKHMSLALNRTGRSIVYSCEWPLYMWPFIKPNYTEIRQYCNHWRNFADIDDSWASIKSILDWTSFNQETIVDVAGPGGWNDPDMLVIGNFGLSWDQQVTQMALWAIMAAPLFMSNDLRHISPQAKALLQDKDVIAINQDPLGKQGYQLRKGDNFEVWERPLSGLAWAVAVINRQEIGGPRSYTIAVASLGKGVACNPACFITQLLPVKRKLGFYNWTSRLKSHVNPTGTVLLQLENTMQMSLKDLL
modifications: Synthetic Polypeptide sequence of Variant No. 359 of mature Human GLA
B6: SP-GLA: 19 amino acid S. cerevisae MFalpha signal peptide fused to the mature form of yeast-optimized GLA (protein)
chain: MRFPSIFTAVLFAASSALALDNGLARTPTMGWLHWERFMCNLDCQEEPDSCISEKLFMEMAELMVSEGWKDAGYEYLCIDDCWMAPQRDSEGRLQADPQRFPHGIRQLANYVHSKGLKLGIYADVGNKTCAGFPGSFGYYDIDAQTFADWGVDLLKFDGCYCDSLENLADGYKHMSLALNRTGRSIVYSCEWPLYMWPFQKPNYTEIRQYCNHWRNFADIDDSWKSIKSILDWTSFNQERIVDVAGPGGWNDPDMLVIGNFGLSWNQQVTQMALWAIMAAPLFMSNDLRHISPQAKALLQDKDVIAINQDPLGKQGYQLRQGDNFEVWERPLSGLAWAVAMINRQEIGGPRSYTIAVASLGKGVACNPACFITQLLPVKRKLGFYEWTSRLRSHINPTGTVLLQLENTMQMSLKDLL
modifications: Synthetic Polynucleotide sequence of SP-GLA (yCDS)
notes: 19 amino acid S. cerevisae MFalpha signal peptide fused to the mature form of yeast-optimized GLA

Experiments:
Assay type in all cases: biochemical
GLA = target: T1, GLA; assay: Effect of Migalastat on thermostability and activity of GLA (HEK293T supernatants)
Method: GLA variants were challenged at various temperatures in the presence and absence of 1 μM 1-deoxygalactonojirimycin (Migalastat) to assess their overall stability. Supernatants from mammalian cell cultures were normalized to approximately equal activities by dilution with supernatant from a non GLA expressing culture. Diluted supernatants were added to the wells of a 96-well PCR plate (Biorad, HSP-9601). The plates were sealed and incubated at 30-54° C. for 1 h using the gradient program of a thermocycler. For the assay, 20 μL, of challenged supernatant was mixed with 30 μL, of 1 M citrate buffer pH 4.3 and 50 μL, of 4 mM MUGal in McIlvaine buffer pH 4.8. The reactions were mixed briefly and incubated at 37° C. for 90 minutes, prior to quenching with 100 μL, of 1 M sodium carbonate. Hydrolysis was analyzed using a SpectraMax® M2 microplate reader monitoring fluorescence (Ex. 355 nm, Em. 448 nm).

[1] = Thermostability of GLA variants expressed in HEK293T cells; details: HEK293T supernatants; 30-54° C. for 1 h; residual MUGal activity
[2] = HTP-analysis of supernatants pretreated with base (MUGal hydrolysis); details: challenge at pH 8.2; activity of the variant/activity of Rd3BB (SEQ ID NO: 13); yeast culture supernatant
Method in brief: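 Fluorescence of released 4-MU (Ex 355 nm, Em 448 nm) after carbonate quench reports MUGal hydrolysis by GLA variants secreted from INVSc1 yeast. Before the acidic (pH 4.3-4.8) 30-180 min reaction at 37° C, supernatants had been pre-incubated at pH 7.0-9.7 for 1-18 h at 37° C.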

[3] = HTP-analysis of supernatants pretreated with acid (MUGal hydrolysis); details: challenge at pH 4.0; activity of the variant/activity of Rd3BB (SEQ ID NO: 13); yeast culture supernatant
Method in brief: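 Fluorescence of MUGal hydrolysis (Ex. 355 nm, Em. 448 nm) is read after sodium carbonate quench. The enzyme source is INVSc1 yeast culture supernatant, first exposed to pH 3.3-4.3 McIlvaine buffer at 37° C. for 1-3 h, then reacted at pH 4.8 for 30-180 minutes.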

[4] = HTP-analysis of yeast culture supernatants, no challenge (MUGal hydrolysis); details: activity of the variant/activity of Rd3BB (SEQ ID NO: 13), yeast culture supernatant
Method in brief: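 Activity read as 4-methylumbelliferyl α-D-galactopyranoside hydrolysis: fluorescence (355/448 nm) after sodium carbonate stop, following 30-180 min at 37° C with 2 mM MUGal stock at pH 4.6–4.8. Enzyme source is unchallenged culture supernatant of INVSc1 yeast expressing GLA variants, grown 66-84 h at 30° C.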

[5] = HTP-analysis of supernatants pretreated with bovine serum (MUGal hydrolysis); details: activity of the variant/activity of Rd3BB (SEQ ID NO: 13), yeast culture supernatant
Method in brief: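 Yeast INVSc1 culture supernatants containing secreted GLA variants were mixed with bovine serum (20:80) and held 1 h at 37° C. Serum-treated samples then reacted with MUGal (4 mM stock) in citrate/McIlvaine buffer (pH 4.3/4.8) for 180 min at 37° C., were quenched with sodium carbonate, and read by fluorescence (Ex 355, Em 448 nm).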

[6] = Optimization of signal peptide for secreted expression of GLA by S. cerevisiae
Source text: Two strategies for secreted GLA expression were utilized, using the yeast MFa signal peptide (MF-SP) or a longer leader sequence of 83 amino acids (MF-leader) to drive secretion of a yeast codon-optimized mature human GLA. Clones were expressed from a pYT-72 vector in S. cerevisiae strain INVSc1. Both approaches provided supernatants with measurable activity on the fluorogenic substrate 4-methylumbelliferyl α-D-galactopyranoside (4-MuGal). However, the construct with the yeast MFa signal peptide provided 3-fold higher activities and was used as the starting sequence for directed evolution.
S. cerevisiae transformed with Mfleader-GLA (SEQ ID NO:7), SP-GLA (SEQ ID NO:36) or a vector control were grown in HTP as described in Example 2. Cultures were grown for 48-120 h prior to harvest of the supernatant and analysis (n=6) as described in Example 2. FIG. 1 provides a graph showing the relative activity of different GLA constructs in S. cerevisiae after 2-5 days of culturing.

Row | Molecule | Relative Activity of GLA Variants After Challenge at pH 8.2 [2] | Relative Activity of GLA Variants After Challenge at pH 4.0 [3] | Relative Activity of GLA Variants After No Challenge (NC) [4] | Relative Activity of GLA Variants After Challenge with Serum [5] | also measured
1 | OC[C@H]1NC[C@H](O)[C@@H](O)[C@H]1O [Migalastat, 1-deoxygalactonojirimycin] |  |  |  |  | reduction of GLA activity in the Migalastat treated sample (GLA; 0.2 μM final concentration in the assay): ~60%; increase of Tm of GLA by addition of Migalastat (GLA; 1 μM Migalastat during temperature challenge): 5.5 °C
2 | B1 |  |  |  |  | increase of Tm of the enzyme [1]: 2 °C
3 | B2 | − (− = <0.5 relative activity to Rd3BB (SEQ ID NO: 13)) | − (− = <0.5 relative activity to Rd3BB (SEQ ID NO: 13)) | + (+ = 0.5 to 1.5 relative activity over Rd3BB (SEQ ID NO: 13)) | − (− = <0.5 relative activity to Rd3BB (SEQ ID NO: 13)) | 
4 | B3 | +++ (+++ = >2.5 relative activity over Rd3BB (SEQ ID NO: 13)) | +++ (+++ = >2.5 relative activity over Rd3BB (SEQ ID NO: 13)) | ++ (++ = >1.5 to 2.5 relative activity over Rd3BB (SEQ ID NO: 13)) | +++ (+++ = >2.5 relative activity over Rd3BB (SEQ ID NO: 13)) | 
5 | B4 | − (− = <0.5 relative activity to Rd3BB (SEQ ID NO: 13)) | − (− = <0.5 relative activity to Rd3BB (SEQ ID NO: 13)) | − (− = <0.5 relative activity to Rd3BB (SEQ ID NO: 13)) | − (− = <0.5 relative activity to Rd3BB (SEQ ID NO: 13)) | 
6 | B5 | +++ (+++ = >2.5 relative activity over Rd3BB (SEQ ID NO: 13)) | + (+ = 0.5 to 1.5 relative activity over Rd3BB (SEQ ID NO: 13)) | + (+ = 0.5 to 1.5 relative activity over Rd3BB (SEQ ID NO: 13)) | + (+ = 0.5 to 1.5 relative activity over Rd3BB (SEQ ID NO: 13)) | 
7 | B6 |  |  |  |  | level of active enzyme produced in S. cerevisiae ([6]; 2-5 days of culturing, saturated after three days of growth): high level of active enzyme; supernatant activity on 4-MuGal, fold higher than MF-leader construct ([6]; S. cerevisiae INVSc1 supernatant, versus MF-leader construct): 3 fold
